These results are taken from publication PMC12753870, “A novel fully human anti-ROR1 antibody PBA-0405 optimized for ADCC, induces potent anti-tumor activity against both solid and hematological malignancies” (Frontiers in Immunology, 2025).

Bounds are passed on as bounds.

Experiment [1] deals with recombinant FcγRIIIA (CD16), allotype 158F (UniProt P08637). As to the kind of experiment: SPR; Biacore 8K; biotinylated recombinant FcγR proteins immobilised on CAP chips; antibodies as analytes in PBS-P+ buffer, 30 μL/min; 1:1 Langmuir model. (SPR reads the build-up and loss of mass on a sensor chip optically.)
In a further experiment the target is recombinant FcγRIIA 167H (UniProt P12318). The experiment is described as follows: SPR; Biacore 8K; biotinylated FcγR immobilised on CAP chip, antibody as analyte in PBS-P+, 30 µL/min; steady state affinity; doses of 22.0405.aF 240-4000 nM for CD32a, 3-200 nM for CD16b; the legend of Supplementary Figure 2 says 'BLI or SPR'.
For another experiment, the target named is recombinant FcγRIIIB (UniProt O75015). The description is as above.
Another experiment has as its target recombinant FcγRI (UniProt P12314). The experiment is described as follows: SPR; Biacore 8K; biotinylated FcγR immobilised on CAP chip, antibody as analyte in PBS-P+, 30 µL/min; 1:1 Langmuir fit, KD = koff/kon; doses of 22.0405.aF 8-500 nM for CD64, 31-2000 nM for CD32b; the legend of Supplementary Figure 2 says 'BLI or SPR'.
In the next experiment the target is recombinant FcγRII B/C (UniProt P31994). Described as above.
In experiment [2] the target is ROR1 endogenously expressed on JeKo-1 cells (human (endogenous in JeKo-1)) (UniProt Q01973).
Experiment [3] concerns the target human ROR1 on transfected CHO-K1 cells (CHO-ROR1) (human) (UniProt Q01973).
In experiment [4] the target is ROR1 endogenously expressed on JeKo-1 cells (human (endogenous in JeKo-1)) (UniProt Q01973). This is another data set of the same source.
Experiment [5] addresses T1, human ROR2 on transfected CHO-K1 cells (CHO-ROR2) (Homo sapiens, UniProt Q01974).
T1 construct: receptor tyrosine kinase-like orphan receptor 2 (ROR2), human; also called hROR-2; source: CHO-K1 cells, transfected, on cells
The experiment is described as follows: flow cytometry on cells; antibody titrated on CHO-K1 cells transfected with ROR1, ROR2 or empty vector, or on cells expressing ROR1 endogenously (JeKo-1); 30 min on ice; detected with APC goat anti-human IgG Fcγ. As to conditions: one partner purified. (In flow cytometry, cells or beads pass a laser one at a time.)

The target of experiment [6] is T2, human ROR1 on transfected CHO-K1 cells (CHO-ROR1) (Homo sapiens, UniProt Q01973).
T2 construct: receptor tyrosine kinase-like orphan receptor 1 (ROR1), human; also called hROR1; CHO cells overexpressing ROR1; source: CHO-K1 cells, stably transfected, on cells
Described as above. As to conditions: one partner purified.

Experiment [7] has as its target recombinant FcγRIIIA (CD16), allotype 158V (UniProt P08637). As to the kind of experiment: SPR; Biacore 8K; biotinylated recombinant FcγR proteins immobilised on CAP chips; antibodies as analytes in PBS-P+ buffer, 30 μL/min; 1:1 Langmuir model.
Experiment [8] concerns the target T3, recombinant Ig-like (IG) domain of human ROR1 (aa 39–151) (Homo sapiens, UniProt Q01973).
T3 construct: ROR1, human, Ig-like domain, aa 39–151; source: bought: Acro Biosystems
As to the kind of experiment: BLI; Octet RED384; antibodies immobilised on AR2G sensors; dipped in 500 nM recombinant Ig-like, Frizzled or Kringle domain for 150 s, dissociation 200 s. The note with it: both partners purified. For orientation: Biolayer interferometry detects binding as a change in optical thickness at a sensor tip.

The target in experiment [9] is T4, recombinant Kringle (KRD) domain of human ROR1 (Homo sapiens, UniProt Q01973).
T4 construct: ROR1, human, Kringle (KRD) domain; source: bought: Acro Biosystems
The experiment is described as above. The note with it: both partners purified.

The target of experiment [10] is T5, recombinant mouse ROR1/Fc (Mus musculus, UniProt Q9Z139).
T5 construct: ROR1, mouse; also called mROR1; source: bought: R&D Systems
As to the kind of experiment: BLI; Octet RED384; antibodies captured on FAB2G (anti-hIgG CH1) biosensors at 5 μg/mL; ROR/Fc as analyte 200–3.13 nM in 10× Kinetics Buffer; 200 s association, 500 s dissociation; 1:2 (bivalent analyte) model; apparent KD = koff1/kon1. The note with it: both partners purified.

Experiment [11] has as its target T6, recombinant human ROR1/Fc (full-length extracellular domain of ROR1) (Homo sapiens, UniProt Q01973).
T6 construct: receptor tyrosine kinase-like orphan receptor 1 (ROR1), human, full-length extracellular domain; Fitted as a bivalent analyte (1:2 model); also called hROR1; recombinant extracellular part of ROR1; source: bought: R&D Systems
The description is as above. The note with it: both partners purified.

Sequence of recombinant FcγRIIIA (CD16), allotype 158F (P08637 17-208): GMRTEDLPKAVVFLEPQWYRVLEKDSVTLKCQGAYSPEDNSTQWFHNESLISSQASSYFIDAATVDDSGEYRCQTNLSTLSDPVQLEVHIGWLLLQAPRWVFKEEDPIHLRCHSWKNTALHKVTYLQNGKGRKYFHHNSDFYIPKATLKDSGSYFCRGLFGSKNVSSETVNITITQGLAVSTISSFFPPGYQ
Sequence of recombinant FcγRIIIA (CD16), allotype 158V (P08637 17-208 F176V): as the sequence (P08637 17-208) above, with F160V counted along it
Sequence of recombinant FcγRIIIB (O75015 17-200): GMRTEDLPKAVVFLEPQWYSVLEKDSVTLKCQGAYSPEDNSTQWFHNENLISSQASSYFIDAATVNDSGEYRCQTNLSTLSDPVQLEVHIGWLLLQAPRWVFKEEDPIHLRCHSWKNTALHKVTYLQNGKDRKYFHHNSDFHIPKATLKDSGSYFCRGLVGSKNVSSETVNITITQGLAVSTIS
T5 sequence (Q9Z139 30-406): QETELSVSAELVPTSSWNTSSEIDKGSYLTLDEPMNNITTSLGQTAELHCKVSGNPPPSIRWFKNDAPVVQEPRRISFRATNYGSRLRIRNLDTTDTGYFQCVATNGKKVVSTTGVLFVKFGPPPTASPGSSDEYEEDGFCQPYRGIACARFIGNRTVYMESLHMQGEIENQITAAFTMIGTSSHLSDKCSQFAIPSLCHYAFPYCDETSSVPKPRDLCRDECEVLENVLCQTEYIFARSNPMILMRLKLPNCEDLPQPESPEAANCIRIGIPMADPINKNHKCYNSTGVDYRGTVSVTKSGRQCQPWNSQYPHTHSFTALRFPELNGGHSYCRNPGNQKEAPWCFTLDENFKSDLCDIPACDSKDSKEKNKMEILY
Sequence of recombinant FcγRI (P12314 16-292): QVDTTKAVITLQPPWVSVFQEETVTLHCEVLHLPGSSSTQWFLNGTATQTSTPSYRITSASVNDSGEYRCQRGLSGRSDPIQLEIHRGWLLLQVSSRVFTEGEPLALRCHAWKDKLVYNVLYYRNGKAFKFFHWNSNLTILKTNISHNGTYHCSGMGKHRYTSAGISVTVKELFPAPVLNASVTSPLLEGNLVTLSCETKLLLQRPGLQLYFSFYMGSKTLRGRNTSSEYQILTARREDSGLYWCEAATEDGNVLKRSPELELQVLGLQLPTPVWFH
Sequence of recombinant FcγRIIA 167H (P12318 34-217): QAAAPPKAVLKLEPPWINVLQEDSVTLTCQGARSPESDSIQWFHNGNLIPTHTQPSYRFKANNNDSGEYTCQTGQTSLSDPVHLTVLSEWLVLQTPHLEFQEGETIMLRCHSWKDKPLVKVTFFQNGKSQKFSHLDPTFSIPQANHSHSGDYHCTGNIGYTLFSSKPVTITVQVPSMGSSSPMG
Sequence of recombinant FcγRII B/C (P31994 43-217): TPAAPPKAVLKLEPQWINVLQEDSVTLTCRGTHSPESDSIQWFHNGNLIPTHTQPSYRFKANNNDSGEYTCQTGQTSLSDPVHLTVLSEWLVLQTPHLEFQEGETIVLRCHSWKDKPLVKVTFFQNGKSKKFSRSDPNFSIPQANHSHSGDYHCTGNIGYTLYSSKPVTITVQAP

Take “zilovertamab-like antibody (anti-ROR1 mAb mimicking zilovertamab, humanized native IgG1)”: the Kd in experiment [1] stood at 3400 nM.

For the molecule zilovertamab-like antibody, the Kd was 2200 nM with recombinant FcγRIIA 167H, more than 4000 nM with recombinant FcγRIIIB, 0.054 nM in the experiment with recombinant FcγRI and more than 4000 nM in the experiment with recombinant FcγRII B/C.

B1: 22.0405.aF (afucosylated form of 22.0405, fully human anti-ROR1 IgG1) (antibody, V domains shown)
VH: EVQLLESGGGLVQPGGSLRLSCAASGFTFHKYGMAWVRQAPGKGLEWVSSIDDRGRYTYYADSVKGRFTISRDNSKNTLYLQMNSLRAEDTAVYYCARGSYIIWSALDYWGQGTLVTVSS
VL: DIQMTQSPSSLSASVGDRVTITCRPNQNIATYINWYQQKPGKAPKLLIYHDNKRPSGVPSRFSGSGSGTDFTLTISSLQPEDFATYYCQQYEKLPWTFGQGTKVEIK
With B1, the Kd in experiment [1] was determined as 57 nM. Moreover, in [2], the tumor cell killing with total PBMCs as effector cells; EC50 amounted to 0.02 nM. The molecule further returned an NK cell-mediated ADCC towards Raji cells overexpressing human ROR1 (Raji-ROR1); EC50; no statistically significant ADCC towards wild-type Raji cells in experiment [3] of 0.002 nM. In [4], this molecule came in with an ADCC by healthy donor NK cells against primary B-CLL cells (65%–99% ROR1-positive); EC50 of 0.018 nM.

B2: 22.0405 (native, fucose-containing fully human anti-ROR1 IgG1 mAb) (antibody, V domains shown)
VH: B1 VH
VL: B1 VL
notes: human IgG1 heavy chain constant region; IgG1; source: CHOK1 cells (BioIntron, China)
As to B2, the binding result in experiment [5] is “no binding”; in [8], “no binding (tested: 500 nM)”; in experiment [9] it was “no binding (tested: 500 nM)”. In experiment [6], the 50% effective concentration (EC50) (in general, the concentration giving half of the maximal effect) was 0.56 nM. In addition, the Kd in [7] is 217 nM; in experiment [1], 690 nM; in [10], 240 nM; in [11], 60 nM.
